Values quoted from earlier work as cited in paper PMC10636758.
pKd: −log10 of the molar value.

Experiments:
HP1α (Homo sapiens) = HP1α (Homo sapiens) (UniProt P45973)
[1] = target: Histone H3 peptide (Homo sapiens)

pKd (HP1α (Homo sapiens)) | pKd [1] | Substance
> 6.00 | – | HP1α (from UniProt P45973)
– | 4.24 | HP1α CSD (from UniProt P45973)
